Assay results: article PMC12663325, “Structural insights into mechanisms of zinc scavenging by the Candida albicans zincophore Pra1” (Nature Communications, 2025)

Target: the molecule itself
Test: cryo-EM structure; Pra1:Zn2+ complex; 20 mM Tris-HCl pH 8.0, 150 mM NaCl, 1 mM ZnSO4, 0.05% BSA as additive; C1 map, 2.5 Å

B1: Candida albicans Pra1, recombinant wild type (full-length excluding the signal peptide) (natural protein)
chain: APVTVTRFVDASPTGYDWRADWVKGFPIDSSCNATQYNQLSTGLQEAQLLAEHARDHTLRFGSKSPFFRKYFGNETASAEVVGHFDNVVGADKSSILFLCDDLDDKCKNDGWAGYWRGSNHSDQTIICDLSFVTRRYLTQLCSSGYTVSKSKTNIFWAGDLLHRFWHLKSIGQLVIEHYADTYEEVLELAQENSTYAVRNSNSLIYYALDVYAYDVTIPGEGCNGDGTSYKKSDFSSFEDSDSGSDSGASSTASSSHQHTDSNPSATTDANSHCHTHADGEVHC
modifications: N-linked glycosylation at Asn 48, Asn 89, Asn 135 and Asn 208; three intramolecular disulfide bonds
notes: Pra1 of Candida albicans, codon-optimized full-length PRA1 excluding the signal peptide; the precursor is 299 amino acids including its N-terminal signal peptide; residues 31-251 are seen in the cryo-EM maps; A TEV protease site stood between the His-tag and Pra1; also called zincophore Pra1; wild-type Pra1; not shown: His-tag, N-terminal, cleaved
stoichiometry N: 6
